Test results from patent publication US20130344055A1, “ANTIMICROBIAL AGENTS” (priority 2010, published 2013).

Experiments:
[1] = test system: P. aeruginosa PAO1p cells; assay: Antimicrobial activity of different peptide stretches; conditions: 30 minutes at room temperature; for Antimicrobial effects against P. aeruginosa (relative inactivation): peptide at 3 μM/L (equimolar to AMP)
Protocol: The bacteria colonies on the agar plates were counted after an overnight incubation at 37° C. Based on the counted cell numbers the antibacterial activity as the relative inactivation in logarithmic units (=log 10N0/Ni with N0=number of untreated cells (of the control) and Ni=number of treated cells, both counted after incubation) is calculated. The reduction in the number of bacteria colonies after treatment with a peptide stretch is indicative for an antimicrobial activity of the peptide stretch, because the bacterial cells are lysed due to the treatment with the peptide stretch. All samples were replicated in four fold.

[2] = test system: Salmonella bacteria; assay: In vitro antibacterial activity of STM0016 fusion variants; format: cell-based; conditions: with EDTA 0.5 mM; 10^6 cells/ml; 30 minutes at RT
Protocol: Exponential growing Gram-negative bacterial cells (OD600 nm=0.6) were 100-fold diluted to a final density of about 10^6 cells/ml in 5 mM HEPES pH 7.4 and incubated for 30 minutes at room temperature without shaking with the different modified OBPgpLYS variants (in Elution Buffer in an end concentration of 1500 nM). After incubation cell suspensions and as a control untreated bacterial cells without any added modified OBPgpLYS variant were diluted three times (respectively 10^5-10^4-10^3 cells/ml) in 1× concentrated PBS buffer and 100 μl of each dilution was plated out on LB-medium. […] All samples were replicated in threefold. Averages +/− standard deviations are represented.
The purification of the fusion proteins and the antimicrobial activity assay was performed as described in Example 1.

[3] = test system: Listeria bacteria; assay: In vitro antibacterial activity of Ply511 fusion variants; format: cell-based; conditions: with EDTA 0.5 mM; 10^6 cells/ml; 30 minutes at RT

Molecule: PK2: polycationic peptide KRKKRKKRKRSKRKKRKKRK
- Antimicrobial activity against P. aeruginosa (relative inactivation) [1]: same antimicrobial activity against P. aeruginosa as SMAP-29 used in a concentration of 3 mmol/L
- Antimicrobial effects against P. aeruginosa (relative inactivation) [1]: no or only minor antimicrobial effects

Molecule: PK: polycationic peptide KRKKRKKRK
- Antimicrobial effects against P. aeruginosa (relative inactivation) [1]: no or only minor antimicrobial effects

Molecule: STM0016-Melittin: STM0016 fusion variant with one peptide stretch, Melittin
- Average log reduction, Salmonella [2]: +/− (+/−: <1 log)

B1: P1y511-BuforinII: Ply511 fusion variant with one peptide stretch, Buforin II (protein)
chain: MVKYTVENKIIAGLPKGKLKGANFVIAHETANSKSTIDNEVSYMTRNWKNAFVTHFVGGGGRVVQVANVNYVSWGAGQYANSYSYAQVELCRTSNATTFKKDYEVYCQLLVDLAKKAGIPITLDSGSKTSDKGIKSHKWVADKLGGTTHQDPYAYLSSWGISKAQFASDLAKVSGGGNTGTAPAKPSTPAPKPSTPSTNLDKLGLVDYMNAKKMDSSYSNRDKLAKQYGIANYSGTASQNTTLLSKIKGGAPKPSTPAPKPSTSTAKKIYFPPNKGNWSVYPTNKAPVKANAIGAINPTKFGGLTYTIQKDRGNGVYEIQTDQFGRVQVYGAPSTGAVIKKTRSSRAGLQFPVGRVHRLLRK
- Average log reduction, Listeria [3]: ++ (++: 2-3 log)

B2: STM0016-LL37: STM0016 fusion variant with one peptide stretch, LL37 (protein)
chain: MNPIIDGIIALEGGYVFNPKDKGGATHWGITEATARAHGYAGDMRDLTHAEAYAILEEDYWIKPGFDVISTLSWPVSFELCDAAVNIGAYHPSAWLQRWLNVFNHEGKRYPDIHVDGNIGPRTLAALEHYLAWRGQEGEAVLVKALNCSQGTYYLNVAEKNHNNEQFIYGWIKNRVTLLGDFFRKSKEKIGKEFKRIVQRIKDFLRNLVPRTES
- Average log reduction, Salmonella [2]: + (+: 1 log)

B3: P1y511-Magainin: Ply511 fusion variant with one peptide stretch, Magainin (protein)
chain: MVKYTVENKIIAGLPKGKLKGANFVIAHETANSKSTIDNEVSYMTRNWKNAFVTHFVGGGGRVVQVANVNYVSWGAGQYANSYSYAQVELCRTSNATTFKKDYEVYCQLLVDLAKKAGIPITLDSGSKTSDKGIKSHKWVADKLGGTTHQDPYAYLSSWGISKAQFASDLAKVSGGGNTGTAPAKPSTPAPKPSTPSTNLDKLGLVDYMNAKKMDSSYSNRDKLAKQYGIANYSGTASQNTTLLSKIKGGAPKPSTPAPKPSTSTAKKIYFPPNKGNWSVYPTNKAPVKANAIGAINPTKFGGLTYTIQKDRGNGVYEIQTDQFGRVQVYGAPSTGAVIKKGIGKFLHSAKKFGKAFVGEIMNS
- Average log reduction, Listeria [3]: ++ (++: 2-3 log)

B4: P1y511: endolysin Ply511 (protein)
chain: MVKYTVENKIIAGLPKGKLKGANFVIAHETANSKSTIDNEVSYMTRNWKNAFVTHFVGGGGRVVQVANVNYVSWGAGQYANSYSYAQVELCRTSNATTFKKDYEVYCQLLVDLAKKAGIPITLDSGSKTSDKGIKSHKWVADKLGGTTHQDPYAYLSSWGISKAQFASDLAKVSGGGNTGTAPAKPSTPAPKPSTPSTNLDKLGLVDYMNAKKMDSSYSNRDKLAKQYGIANYSGTASQNTTLLSKIKGGAPKPSTPAPKPSTSTAKKIYFPPNKGNWSVYPTNKAPVKANAIGAINPTKFGGLTYTIQKDRGNGVYEIQTDQFGRVQVYGAPSTGAVIKK
modifications: Listeria monocytogenes Phage A511
notes: endolysin Ply511
- Average log reduction, Listeria [3]: + (+: 1 log)

B5: P1y511-BuforinII-Magainin: Ply511 with Buforin II C-terminal of the enzyme, followed by Magainin (protein)
chain: MVKYTVENKIIAGLPKGKLKGANFVIAHETANSKSTIDNEVSYMTRNWKNAFVTHFVGGGGRVVQVANVNYVSWGAGQYANSYSYAQVELCRTSNATTFKKDYEVYCQLLVDLAKKAGIPITLDSGSKTSDKGIKSHKWVADKLGGTTHQDPYAYLSSWGISKAQFASDLAKVSGGGNTGTAPAKPSTPAPKPSTPSTNLDKLGLVDYMNAKKMDSSYSNRDKLAKQYGIANYSGTASQNTTLLSKIKGGAPKPSTPAPKPSTSTAKKIYFPPNKGNWSVYPTNKAPVKANAIGAINPTKFGGLTYTIQKDRGNGVYEIQTDQFGRVQVYGAPSTGAVIKKTRSSRAGLQFPVGRVHRLLRKGIGKFLHSAKKFGKAFVGEIMNS
- Average log reduction, Listeria [3]: +++ (+++: 4 or more logs)
